Binding data for one sequence are collected here from PMC4619830.

For this series, the target named is T1, SoxR (MerR-type HTH transcriptional regulator) (Acinetobacter baumannii AYE) (UniProt C7FFS1).
T1 sequence: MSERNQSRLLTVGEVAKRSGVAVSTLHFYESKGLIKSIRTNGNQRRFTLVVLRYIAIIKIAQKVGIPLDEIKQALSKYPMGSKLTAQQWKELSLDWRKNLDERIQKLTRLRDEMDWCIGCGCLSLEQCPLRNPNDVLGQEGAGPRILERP
In words: EMSA. Conditions: not stated (gel shift as described previously, 20). (In general: A gel shift assay detects complexes by their altered migration in electrophoresis.)

Regarding “GGCTGCTCGGTATGATGTCGTTAATTAACAGAAGTAAATGCCGCTTCGAGATTTTGTGATGATCAACGAGCGGTATAAAAAAGACAAGTAGAATTAAACAATAAATGTAATTAAGACAAAAACAAAGCGTGATTGAATATTTCCAACAAACCAATAAAAAACCAGTTAACGAGTGTCACTTAAAATTCATGAATTCTTCATGATCATGTCAAACAAAGCA (double strand) [abeD promoter fragment]”, the binding entry is recorded as “binds”.
